In paper PMC9482650, “Quantitative fragmentomics allow affinity mapping of interactomes” (Nature Communications, 2022):
One block for each binder: values may come before it.

What was measured:
Experiment in all cases: holdup assay
Set-up in all cases: key: below the threshold = too weak to quantify, mostly under pKd 3.1 to 4
PDZD2_2, O15018 = biological target: T1, PDZD2_2, O15018
T1 sequence (O15018 329-429, limits assumed, looked up): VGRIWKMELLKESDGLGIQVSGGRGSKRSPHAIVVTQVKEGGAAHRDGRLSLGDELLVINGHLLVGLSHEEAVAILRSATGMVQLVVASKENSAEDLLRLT

TX1BP3, O14907 = biological target: T2, TX1BP3, O14907
T2 sequence (O14907 10-122, limits assumed, looked up): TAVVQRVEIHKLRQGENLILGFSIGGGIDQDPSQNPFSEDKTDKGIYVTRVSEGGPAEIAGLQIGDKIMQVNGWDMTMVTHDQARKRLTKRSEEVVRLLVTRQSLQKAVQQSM

SCRIB_2, Q14160 = biological target: SCRIB_2, Q14160
SCRIB_2, Q14160, sequence (Q14160 857-960): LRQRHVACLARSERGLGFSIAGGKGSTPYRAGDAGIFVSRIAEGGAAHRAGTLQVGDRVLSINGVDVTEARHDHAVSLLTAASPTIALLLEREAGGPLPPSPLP

GRIP2_3, Q9C0E4 = biological target: GRIP2_3, Q9C0E4
GRIP2_3, Q9C0E4, sequence (Q9C0E4 238-339): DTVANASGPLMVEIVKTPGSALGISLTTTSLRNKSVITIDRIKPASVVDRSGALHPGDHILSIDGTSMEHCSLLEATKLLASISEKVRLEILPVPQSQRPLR

IL16_3, Q14005 = biological target: IL16_3, Q14005
IL16_3, Q14005, sequence (Q14005 1107-1207): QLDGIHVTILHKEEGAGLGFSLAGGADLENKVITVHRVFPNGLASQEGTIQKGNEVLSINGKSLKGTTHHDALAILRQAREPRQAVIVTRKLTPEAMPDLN

HTRA3, P83110 = biological target: T3, HTRA3, P83110
T3 sequence (P83110 354-453, limits assumed, looked up): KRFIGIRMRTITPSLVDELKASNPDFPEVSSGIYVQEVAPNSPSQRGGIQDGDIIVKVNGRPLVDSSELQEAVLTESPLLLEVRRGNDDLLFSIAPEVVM

DLG4_3, P78352 = biological target: DLG4_3, P78352
DLG4_3, P78352, sequence (P78352 306-403): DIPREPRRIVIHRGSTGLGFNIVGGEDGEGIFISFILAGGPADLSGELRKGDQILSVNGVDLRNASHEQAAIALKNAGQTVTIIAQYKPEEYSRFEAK

Inadl_5, Q8NI35 = biological target: Inadl_5, Q8NI35
Inadl_5, Q8NI35, sequence (Q8NI35 673-780): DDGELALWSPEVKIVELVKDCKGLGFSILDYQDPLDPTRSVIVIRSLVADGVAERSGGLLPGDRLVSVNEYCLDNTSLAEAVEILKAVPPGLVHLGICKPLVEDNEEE

LNX1_2, Q8TBB1 = biological target: LNX1_2, Q8TBB1
LNX1_2, Q8TBB1, sequence (Q8TBB1 371-470): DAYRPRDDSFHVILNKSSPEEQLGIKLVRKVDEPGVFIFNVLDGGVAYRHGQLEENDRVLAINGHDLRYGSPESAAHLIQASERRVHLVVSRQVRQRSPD

SYNJ2BP, P57105 = biological target: T4, SYNJ2BP, P57105
T4 sequence (P57105 8-110, limits assumed, looked up): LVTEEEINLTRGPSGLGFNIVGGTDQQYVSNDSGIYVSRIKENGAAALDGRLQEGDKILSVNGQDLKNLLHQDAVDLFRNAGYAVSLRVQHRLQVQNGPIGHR

DFNB31_2, Q9P202 = biological target: T5, DFNB31_2, Q9P202
T5 sequence (Q9P202 274-371, limits assumed, looked up): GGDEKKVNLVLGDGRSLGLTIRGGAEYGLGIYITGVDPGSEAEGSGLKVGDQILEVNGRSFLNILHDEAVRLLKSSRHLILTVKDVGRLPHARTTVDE

Inadl_10, Q8NI35 = biological target: Inadl_10, Q8NI35
Inadl_10, Q8NI35, sequence (Q8NI35 1673-1763): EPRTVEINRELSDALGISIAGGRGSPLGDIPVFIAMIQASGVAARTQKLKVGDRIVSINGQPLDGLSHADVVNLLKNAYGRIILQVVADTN

FRMPD4, Q14CM0 = biological target: FRMPD4, Q14CM0
FRMPD4, Q14CM0, sequence (Q14CM0 67-160): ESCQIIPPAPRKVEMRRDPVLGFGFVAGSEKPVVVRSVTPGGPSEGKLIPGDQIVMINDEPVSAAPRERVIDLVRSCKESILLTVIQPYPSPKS

GORASP1, Q9BQQ3 = biological target: GORASP1, Q9BQQ3
GORASP1, Q9BQQ3, sequence (Q9BQQ3 1-208): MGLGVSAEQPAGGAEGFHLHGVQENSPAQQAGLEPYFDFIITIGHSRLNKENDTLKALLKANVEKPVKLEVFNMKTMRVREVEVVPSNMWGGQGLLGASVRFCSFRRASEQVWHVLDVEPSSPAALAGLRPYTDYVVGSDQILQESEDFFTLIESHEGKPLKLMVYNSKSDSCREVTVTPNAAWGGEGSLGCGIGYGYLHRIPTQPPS

MAGI3_2, Q5TCQ9 = biological target: MAGI3_2, Q5TCQ9
MAGI3_2, Q5TCQ9, sequence (Q5TCQ9 398-503): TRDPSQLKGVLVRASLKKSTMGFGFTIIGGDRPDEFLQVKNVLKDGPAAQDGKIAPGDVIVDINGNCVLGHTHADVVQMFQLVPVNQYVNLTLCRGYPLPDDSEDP

MAGI2_3, Q86UL8 = biological target: MAGI2_3, Q86UL8
MAGI2_3, Q86UL8, sequence (Q86UL8 600-682): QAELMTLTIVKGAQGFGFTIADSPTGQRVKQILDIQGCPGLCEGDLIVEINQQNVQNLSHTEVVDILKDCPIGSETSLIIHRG

DLG2_2, Q15700 = biological target: DLG2_2, Q15700
DLG2_2, Q15700, sequence (Q15700 189-283): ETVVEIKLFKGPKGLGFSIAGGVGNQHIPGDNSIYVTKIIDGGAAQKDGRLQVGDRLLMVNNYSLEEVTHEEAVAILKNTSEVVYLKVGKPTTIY

MAGI2_5, Q86UL8 = biological target: MAGI2_5, Q86UL8
MAGI2_5, Q86UL8, sequence (Q86UL8 915-1017): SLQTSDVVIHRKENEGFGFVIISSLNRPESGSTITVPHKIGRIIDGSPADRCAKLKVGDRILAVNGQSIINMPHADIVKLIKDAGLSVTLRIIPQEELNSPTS

HTRA1, Q92743 = biological target: HTRA1, Q92743
HTRA1, Q92743, sequence (Q92743 360-477): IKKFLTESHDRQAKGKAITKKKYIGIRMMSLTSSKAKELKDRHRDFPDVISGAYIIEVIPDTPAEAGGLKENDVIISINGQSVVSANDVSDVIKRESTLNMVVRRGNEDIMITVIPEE

LIN7A, O14910 = biological target: T6, LIN7A, O14910
T6 sequence (O14910 103-200, limits assumed, looked up): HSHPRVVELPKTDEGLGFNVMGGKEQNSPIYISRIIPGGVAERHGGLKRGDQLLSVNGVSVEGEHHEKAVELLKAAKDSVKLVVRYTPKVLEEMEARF

Inadl_2, Q8NI35 = biological target: Inadl_2, Q8NI35
Inadl_2, Q8NI35, sequence (Q8NI35 238-335): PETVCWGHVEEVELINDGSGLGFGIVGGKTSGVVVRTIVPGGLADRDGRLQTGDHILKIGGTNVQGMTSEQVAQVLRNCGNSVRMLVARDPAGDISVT

TJP1_2, Q07157 = biological target: TJP1_2, Q07157
TJP1_2, Q07157, sequence (Q07157 181-274): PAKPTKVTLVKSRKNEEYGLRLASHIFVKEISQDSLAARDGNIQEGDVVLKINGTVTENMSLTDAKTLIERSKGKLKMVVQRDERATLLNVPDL

DLG5_1, Q8TDM6 = biological target: DLG5_1, Q8TDM6
DLG5_1, Q8TDM6, sequence (Q8TDM6 617-713): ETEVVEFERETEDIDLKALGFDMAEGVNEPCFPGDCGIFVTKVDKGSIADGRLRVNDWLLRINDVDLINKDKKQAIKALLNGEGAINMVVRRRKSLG

PICK1, Q9NRD5 = biological target: PICK1, Q9NRD5
PICK1, Q9NRD5, sequence (Q9NRD5 17-115): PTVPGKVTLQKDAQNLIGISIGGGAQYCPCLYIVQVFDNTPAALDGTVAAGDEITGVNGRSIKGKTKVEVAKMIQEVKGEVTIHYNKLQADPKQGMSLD

FRMPD2_1, Q68DX3 = biological target: FRMPD2_1, Q68DX3
FRMPD2_1, Q68DX3, sequence (Q68DX3 770-861): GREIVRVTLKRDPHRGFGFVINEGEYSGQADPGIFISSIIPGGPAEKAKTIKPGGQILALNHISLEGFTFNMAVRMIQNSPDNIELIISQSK

GRIP1_7, Q9Y3R0 = biological target: T7, GRIP1_7, Q9Y3R0
T7 sequence (Q9Y3R0 999-1096, limits assumed, looked up): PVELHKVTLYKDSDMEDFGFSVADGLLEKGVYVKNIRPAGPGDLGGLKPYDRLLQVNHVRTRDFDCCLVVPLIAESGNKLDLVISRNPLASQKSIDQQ

Inadl_8, Q8NI35 = biological target: Inadl_8, Q8NI35
Inadl_8, Q8NI35, sequence (Q8NI35 1425-1530): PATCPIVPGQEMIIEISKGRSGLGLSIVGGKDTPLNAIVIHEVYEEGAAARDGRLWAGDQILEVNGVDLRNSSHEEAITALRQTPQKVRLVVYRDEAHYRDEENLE

ARHGAP21, Q5T5U3 = biological target: T8, ARHGAP21, Q5T5U3
T8 sequence (Q5T5U3 45-169, limits assumed, looked up): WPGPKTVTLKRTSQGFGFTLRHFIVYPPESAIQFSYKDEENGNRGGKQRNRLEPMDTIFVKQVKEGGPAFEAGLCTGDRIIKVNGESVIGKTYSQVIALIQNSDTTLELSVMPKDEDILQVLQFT

GRID2IP_2, A4D2P6 = biological target: GRID2IP_2, A4D2P6
GRID2IP_2, A4D2P6, sequence (A4D2P6 272-370): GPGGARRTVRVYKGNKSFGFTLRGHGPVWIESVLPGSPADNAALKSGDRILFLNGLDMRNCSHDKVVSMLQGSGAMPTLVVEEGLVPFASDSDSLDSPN

[1] = plain residues with an end cap or a label only (N-terminal biotin on a linker: ado-ado)
[2] = modified: acetyl on K at position -1 from the C-terminal residue
[3] = modified: phospho on S at position -3 from the C-terminal residue

pKd (PDZD2_2, O15018; [1]): below the threshold | pKd (TX1BP3, O14907; [1]): 3.8 | pKd (SCRIB_2, Q14160; [1]): below the threshold | pKd (GRIP2_3, Q9C0E4; [1]): below the threshold | pKd (IL16_3, Q14005; [1]): below the threshold | pKd (HTRA3, P83110; [1]): below the threshold | pKd (DLG4_3, P78352; [1]): below the threshold | pKd (Inadl_5, Q8NI35; [1]): below the threshold | pKd (LNX1_2, Q8TBB1; [1]): below the threshold | pKd (SYNJ2BP, P57105; [1]): below the threshold | pKd (DFNB31_2, Q9P202; [1]): below the threshold | pKd (Inadl_10, Q8NI35; [1]): below the threshold | pKd (FRMPD4, Q14CM0; [1]): below the threshold | pKd (GORASP1, Q9BQQ3; [1]): below the threshold | pKd (MAGI3_2, Q5TCQ9; [1]): below the threshold | pKd (MAGI2_3, Q86UL8; [1]): below the threshold | pKd (DLG2_2, Q15700; [1]): below the threshold | pKd (MAGI2_5, Q86UL8; [1]): below the threshold | pKd (HTRA1, Q92743; [1]): 3.58 | pKd (LIN7A, O14910; [1]): below the threshold | pKd (Inadl_2, Q8NI35; [1]): below the threshold | pKd (TJP1_2, Q07157; [1]): below the threshold | pKd (DLG5_1, Q8TDM6; [1]): below the threshold | pKd (PICK1, Q9NRD5; [1]): below the threshold | pKd (FRMPD2_1, Q68DX3; [1]): below the threshold | pKd (GRIP1_7, Q9Y3R0; [1]): below the threshold | pKd (Inadl_8, Q8NI35; [1]): below the threshold | pKd (ARHGAP21, Q5T5U3; [1]): below the threshold | pKd (GRID2IP_2, A4D2P6; [1]): below the threshold
Binder: FEEEAEEEVA [TUBB4B, P68371]

pKd (PDZD2_2, O15018; [2]): 4.22 | pKd (TX1BP3, O14907; [2]): 3.74 | pKd (SCRIB_2, Q14160; [2]): below the threshold | pKd (GRIP2_3, Q9C0E4; [2]): below the threshold | pKd (IL16_3, Q14005; [2]): below the threshold | pKd (HTRA3, P83110; [2]): below the threshold | pKd (DLG4_3, P78352; [2]): below the threshold | pKd (Inadl_5, Q8NI35; [2]): below the threshold | pKd (LNX1_2, Q8TBB1; [2]): 4.18 | pKd (SYNJ2BP, P57105; [2]): 3.61 | pKd (DFNB31_2, Q9P202; [2]): below the threshold | pKd (Inadl_10, Q8NI35; [2]): below the threshold | pKd (FRMPD4, Q14CM0; [2]): below the threshold | pKd (GORASP1, Q9BQQ3; [2]): 4.04 | pKd (MAGI3_2, Q5TCQ9; [2]): 4.55 | pKd (MAGI2_3, Q86UL8; [2]): 4.85 | pKd (DLG2_2, Q15700; [2]): 4.37 | pKd (MAGI2_5, Q86UL8; [2]): 4.88 | pKd (HTRA1, Q92743; [2]): 5.03 | pKd (LIN7A, O14910; [2]): below the threshold | pKd (Inadl_2, Q8NI35; [2]): 3.6 | pKd (TJP1_2, Q07157; [2]): below the threshold | pKd (DLG5_1, Q8TDM6; [2]): below the threshold | pKd (PICK1, Q9NRD5; [2]): 3.75 | pKd (FRMPD2_1, Q68DX3; [2]): below the threshold | pKd (GRIP1_7, Q9Y3R0; [2]): below the threshold | pKd (Inadl_8, Q8NI35; [2]): 4.82 | pKd (ARHGAP21, Q5T5U3; [2]): below the threshold | pKd (GRID2IP_2, A4D2P6; [2]): 4.39
Binder: DEDQHTQITKV [PTEN_Ac, P60484]

pKd (PDZD2_2, O15018; [3]): below the threshold | pKd (TX1BP3, O14907; [3]): below the threshold | pKd (SCRIB_2, Q14160; [3]): below the threshold | pKd (GRIP2_3, Q9C0E4; [3]): below the threshold | pKd (IL16_3, Q14005; [3]): below the threshold | pKd (HTRA3, P83110; [3]): below the threshold | pKd (DLG4_3, P78352; [3]): below the threshold | pKd (Inadl_5, Q8NI35; [3]): below the threshold | pKd (LNX1_2, Q8TBB1; [3]): below the threshold | pKd (SYNJ2BP, P57105; [3]): 4.48 | pKd (DFNB31_2, Q9P202; [3]): below the threshold | pKd (Inadl_10, Q8NI35; [3]): below the threshold | pKd (FRMPD4, Q14CM0; [3]): 3.73 | pKd (GORASP1, Q9BQQ3; [3]): below the threshold | pKd (MAGI3_2, Q5TCQ9; [3]): 4.1 | pKd (MAGI2_3, Q86UL8; [3]): below the threshold | pKd (DLG2_2, Q15700; [3]): below the threshold | pKd (MAGI2_5, Q86UL8; [3]): below the threshold | pKd (HTRA1, Q92743; [3]): below the threshold | pKd (LIN7A, O14910; [3]): below the threshold | pKd (Inadl_2, Q8NI35; [3]): below the threshold | pKd (TJP1_2, Q07157; [3]): below the threshold | pKd (DLG5_1, Q8TDM6; [3]): below the threshold | pKd (PICK1, Q9NRD5; [3]): below the threshold | pKd (FRMPD2_1, Q68DX3; [3]): below the threshold | pKd (GRIP1_7, Q9Y3R0; [3]): 3.68 | pKd (Inadl_8, Q8NI35; [3]): below the threshold | pKd (ARHGAP21, Q5T5U3; [3]): below the threshold | pKd (GRID2IP_2, A4D2P6; [3]): below the threshold
Binder: RRVRKLPSTTL [RPS6KA1_-3P, Q15418]
